According to patent US20230093399A1, “METHODS FOR GENERATING PLURIPOTENT STEM CELL-DERIVED BROWN FAT CELLS” (AgeX Therapeutics, Inc., priority 2013, published 2023):

Tests used:
fBAT cells = test: Differentiation of fBAT preadipocyte cells in HyStem beads, Illumina microarray gene expression; type: cell-based, human; conditions: 14 days HyStem beads, 50 ng/ml BMP4, FIG. 15 sample 2
Protocol: Differentiation medium is high glucose DMEM (CellGro Cat. No. 15-013-CV) with Pyruvate, 1 mM (Gibco Cat. 11360), Pen:Strep 100U/ml:100 ug/ml (Gibco Cat. No. 504284), Glutamax 2 mM (Gibco Cat. No. 35050), Dexamethasone 0.1 uM (Sigma, St. Louis, Mo., Cat. No. D1756-100), L-Proline 0.35 mM (Sigma Cat. No. D49752), 2-phospho-L-Ascorbic Acid 0.17 mM (Sigma, Cat. No. 49792, Fluka), and ITS Premix (BD, Franklin Lakes, N.J., sterile Cat. No. 47743-628) with a final concentration 6.25 ug/ml insulin, 6.25 ug/ml transferrin, 6.25 ng/ml selenious acid, serum albumin 1.25 mg/ml, 5.35 ug/ml linoleic acid. In various differentiation conditions, the Differentiation medium is supplemented with various growth factors or other differentiation factors as described herein.
HyStem-C (BioTime, Inc. Alameda, Calif.) is a matrix composed of thiol-modified gelatin and thiolated hyaluronan crosslinked in vivo or in vitro with (polyethylene glycol diacrylate (PEGDA). We observed that clonal human embryonic progenitor cell lines such as those described in the present invention, could be efficiently differentiated in high-density cultures of said crosslinked collagen and hyaluronate in the following manner. HyStem-C® (BioTime, CA, USA) is reconstituted following the manufacturer's instructions. Briefly, the HyStem component (10 mg of thiol-modified hyaluronan) is dissolved in 1.0 ml of degassed deionized water for approximately 20 min to prepare a 1% w/v solution. […] At the desired time point, hydrogel constructs were either fixed and processed for immunohistochemical analysis or lysed using RLT (Qiagen, CA, USA) with 1% beta-mercaptoethanol for total RNA to analyze transcript expression using quantitative real-time PCR (qRT-PCR) and/or whole-genome microarray.
Total RNA was extracted directly from cells growing in 6-well plates or 10 cm tissue culture dishes using Qiagen RNeasy mini kits according to the manufacturer's instructions. […] Values of less than 120 relative fluorescence units (RFUs) were considered as nonspecific background signal. […]

cell line E163 = test: Differentiation of cell line E163 in HyStem, gene expression; type: cell-based, human; conditions: E163 passage 12; 21 days in HyStem with 10 ng/mL BMP4
Protocol: HyStem-C (BioTime, Inc. Alameda, Calif.) (BioTime, Alameda, Calif., USA) was reconstituted following the manufacturer's instructions. Briefly, the HyStem component (thiol modified hyaluronan, 10 mg) was dissolved in 1.0 ml degassed deionized water for about 20 minutes to prepare a 1% w/v solution. The Gelin-S component (thiol modified gelatin, 10 mg) was dissolved in 1 ml degassed deionized water to prepare a 1% w/v solution, and PEGDA (PEG diacrylate, 10 mg) was dissolved in 0.5 ml degassed deionized water to prepare a 2% w/v solution. HyStem (1 ml, 1% w/v) was mixed with Gelin-S (1 ml, 1% w/v) immediately before use. Pelleted cells were resuspended in recently prepared HyStem:Gelin-S (1:1 v/v) mix described above. Upon the addition of crosslinker PEGDA, the cell suspension, at a final concentration of 2.0×10^7 cells/ml, was aliquoted at 25 μl aliquot four to five times into each well of 6 well plates (Corning 3516) after partial gelation to form attached beads. Following complete gelation (20 minutes), chondrogenic medium was added to each well (i.e about 4 ml/each well of a 6 well plate). […]

B1: BMP4: Bone Morphogenetic Protein 4, TGF-beta superfamily member (protein, UniProt P12644 293-408, looked up)
Bone morphogenetic protein 4: SPKHHSQRARKKNKNCRRHSLYVDFSDVGWNDWIVAPPGYQAFYCHGDCPFPLADHLNSTNHAIVQTLVNSVNSSIPKACCVPTELSAISMLYLDEYDKVVLKNYQEMVVEGCGCR
For B1, the ADIPOQ expression (fBAT cells) was “markedly up-regulating”, the C19ORF80 expression (fBAT cells) was “markedly up-regulating” and the UCP1 expression (fBAT cells) was “low or undetectable level”. For the same molecule, the “adipocyte markers FABP4 and CD36 and candidate BAT cell progenitor markers such as C19orf80” value (cell line E163) was “relatively high levels”.
